{
  "source": "the DeepSol protein solubility set",
  "data": [
    {"assay": "soluble on expression in E. coli; label from the status in PepcDB or PDB records", "values": [
      {"sequence": "MSQKEQIKTYKGPAGGWGALKAVTRSWWGSENAVKNIRTMLKTNQNGGFDCPGCAWGESPDSGKVNFCENGAKAVNWEATNRLVDPEFFANHSVSSLSTQTDYWLEYQG", "soluble on expression in E. coli": "not soluble"},
      {"sequence": "MSQPVAFVTGCSSGIGRALADAFQRAGYRVWASARKEDDVRALAEAGFQAVQLDVNDAAALARLAEELGVEAAGLDVLVNNAGYGAMGPLLDGGVEAMRRQFETNVFAVVGVTRALFPLLRRKSGLVVNVGSVSGVLVTPFAGAYCASKAAVHALSDALRLELAPFGVEVLEVQPGAIASNFGASASREMDSVVDERSPWWPLRRQIQARAAASQDNPTSAEDFARQLLAAVQRRPRPPLVRIGNGSRALPALARWLPRGLLERLLKKRFGLDTRL", "soluble on expression in E. coli": "not soluble"},
      {"sequence": "MSQQPGVLPENMKRYMGRDAQRMNILAGRIIAETVRSTLGPKGMDKMLVDDLGDVVVTNDGVTILREMSVEHPAAKMLIEVAKTQEKEVGDGTTTAVVVAGELLRKAEELLDQNVHPTIVVKGYQAAAQKAQELLKTIACEVGAQDKEILTKIAMTSITGKGAEKAKEKLAEIIVEAVSAVVDDEGKVDKDLIKIEKKSGASIDDTELIKGVLVDKERVSAQMPKKVTDAKIALLNCAIEIKETETDAEIRITDPAKLMEFIEQEEKMLKDMVAEIKASGANVLFCQKGIDDLAQHYLAKEGIVAARRVKKSDMEKLAKATGANVITNIKDLSAQDLGDAGLVEERKISGDSMIFVEECKHPKAVTMLIRGTTEHVIEEVARAVDDAVGVVGCTIEDGRIVSGGGSTEVELSMKLREYAEGISGREQLAVRAFADALEVIPRTLAENAGLDAIEILVKVRAAHASNGNKCAGLNVFTGAVEDMCENGVVEPLRVKTQAIQSAAESTEMLLRIDDVIAAEKLRGAPDMGDMGGMPGMGGMPGMM", "soluble on expression in E. coli": "soluble"},
      {"sequence": "MSQSDEASVAEPTVVVATPVAVAVTAPATHPRKPPALVISTIACPTIYEQAPSKPASPTMPLSPYEGITADLMQRIQLFSSQFDHARLSPNYATSDLGSSARSSFSSTTSSFLTYRDRSVDFDEAGKELISPFDCDTNCSGTPYSLSTNSGNHFSFEARSVSSLGHSTAHFNQLLAAGAAYELSRERSRSESDMQPTQEDDVRHLNTSTISVPIYAKKPLHKFGGEIKRSSSTPPPTSDEREQVEQRLLLRPSSGMEIKKDLETTNSFVSSWAREQIFAMQNATMYNLLTARSAEDCSTISTPGPLKVFPRSKDDMTFAPRDDSSRAKQMQYPCTLCGQAFAVHDRLAKHIASRHRQRSCTLDDASKVHKCNMCSKSFSRSDMLTRHMRLHTGAKPYSCPTCNQVFSRSDHLSTHLRTHTGEKPYACPMCNYSASRRDMISRHMRTHSLTDDSSISTPISQLSIRSATTSPLPPKIGSTATVEIGSGLLSAFKPILSASSSNLLSVSSPFQSLSLSTPPSPSFAPIVLNRQLSFDVTMRNTTS", "soluble on expression in E. coli": "soluble"},
      {"sequence": "MSQSTSSEGSGPAAKIARKNSPENDPETAEMFIVDEITDMRYSTTCRQLQFLVKWAIPGSEMTWQPLDDFPFGLNHFSILDYRKDHEEKYEACLQKQRRSKVMKDDDRSWNVSRNSNRSRNRSKSSSKPAQRTEPMTQREKFDAILQISEISLEKQYKLTNKKVPRRSQFTDPDAPKKKSKGARHYRDQNLKTLFKSSLIRKYRKPQESDDDLEPDVAQDSPENTPAPPTKSPESSGFSENLENLGANTPSPSPDFEEEHLEKKPETGNLTENRPKRVYSHETAESMENYAKLLLYTAFDTKSWETLGGHIKNGFRLSFVCSNGLTIIENVVELNKNLNKFSDSRESRMVADLFELLLKKGVEFDEKTLPPTMCAAVRSTRYDIRRDFRCLHNQYIDKRPRMCEWFSATGGGGSCGTTEICTFWNNDAGYLPNTHQRSKFHVDLSEFTGNNLGLLAFSMAWHEDFIDNNSGGPEIVKNNRFNAHIDVPCFTLWMNGKMCEKLENSHGLSIFRPLGTVLDVNELKIKITEHSSRFVAILPVFNLNSDWKNCFFPLENQ", "soluble on expression in E. coli": "not soluble"},
      {"sequence": "MSQTEPPEDLMQYEAMAQDALRGVVKAALKKAAAPGGLPEPHHLYITFKTKAAGVSGPQDLLSKYPDEMTIVLQHQYWDLAPGETFFSVTLKFGGQPKRLSVPYAALTRFYDPSVQFALQFSAPEIIEDEPEPDPEPEDKANQGASGDEGPKIVSLDQFRKKLEHHHHHH", "soluble on expression in E. coli": "soluble"},
      {"sequence": "MSRITQVHRILEQKHLDAIIILSDYNRRYLSGFTGTSGALIISKDKQYLITDFRYIDQATKQAPNYEIINRKSTIIGEIKELLHQENFENVGFEGHHVSYDTYLELNKSRISLISISNTVDKIRDVKDADEIALIQKAANIVDETYEYILTVVKAGMTEKELKAILESKMLELGADGPSFDTIVASGHRGALPHGVASDKIIEKGDMITLDFGAYYNGYCSDITRTFAIGEPDPKLKEIYQIVLESQMKAINEIRPGMTGAEADAISRNYLESKGYGKEFGHSLGHGIGLEIHEGPMLARTIQDKLQVNNCVTVEPGVYIEGLGGIRIEDDILITENGCQVFTKCTKDLIVLT", "soluble on expression in E. coli": "not soluble"},
      {"sequence": "MSRKTLVDTPITPQSSIGHILRAQFALQNQLPEDKPKTIGFNEAENMKLYELYSGRREEYHSTRPSGQRNEEVPMDTLAREWATEITSMGFAERTPAQIKQRIRDMRKFSRKHAHKLGITNMNAGQELERYAEFSWAEPKRRSRGPVPDWMSGLAEIMMSEQDTKADDADSASDIMEATYGPKAKRLKLQRTEMQLHQLQLHLDMKQRELKQEREKEEGNGNDEQEEREKRDVSPETLLIEKKLRLADAKLHTEHLKQQVSIP", "soluble on expression in E. coli": "not soluble"},
      {"sequence": "MSRLRVFRQTGWFIAGLMTGLPATAAPAEASSMAGVAVAVATTTPPDATATLQAMQSCRRESAALERLDCYDHLLAPLSPSGFDGALVKAGFVGEAWTRATEQEKRREGNTTELLVTQVPGERPTVVITTPAIGHVPPRPVLMFSCVDNITRMQVALMHPLDVHDIAVTLNADSRALRSHWFVRENGTLLESSRGLSGIDEIKQLFGAKTLTVDTGADNAAGKLTFNIDGLARAIAPLRDACHWAGE", "soluble on expression in E. coli": "not soluble"},
      {"sequence": "MSRPFTGATLCTTIAPHCSRTTAMTTLPAASPEALATSQALCGRISQAIAEAGGWIPFSHYMELALYAPGMGYYAAGSRKLGEDGDFVTAPELTPLFGQSLARQLAELLPQTAGAVYEFGAGTGKLAIDLLAELKALNQLPAKYVILDLSPDLIDRQRQNIRAALPHLADRVEWASSLPDAIDGIVIGNELLDAMPCEMVFRDEDRRLRQRGVTVRDGALCYEDRDFADSRLAELAAQLLPDIPRYETEISLANRAFIATVAGALTRGAILMIDYGHAASEYYHPERSMGTLLGHYRHHTVQDPFYLPGLMDLTCHVDFTAVAQSGIDAGLDLIGYTSQAQFLVNCGLIERLQTLDADDVKAYLPIAKAAQRLLSPQEMGETFKAIGFGKGVSIDWLGFARGDRCYTLLEHHHHHH", "soluble on expression in E. coli": "soluble"},
      {"sequence": "MSRQEVGYPFHLGRTLKLPQDPPGMAAIYLQSCSGGLFAGETLHLQLHAGPHTQVHVSTGAATVAHSMLEQPARQTVTLIAETGALLEYLPMATILFPQARLHSVVNVTLHPNARVMLCDAFCLHVPPGSAGLPGFYRADLHIRCPAGTLLAGDRLALTGADLQRRLPGVSAELQALATFMLVGQDLPVDELKRALRDALRVVPESYLGVSALPNDCGVSVRIMTADAVALRSALHLAWACARQQLTGIAPRVRRKLEHHHHHH", "soluble on expression in E. coli": "not soluble"},
      {"sequence": "MSRRLRRTKIVTTLGPATDRDNNLEKVIAAGANVVRMNFSHGSPEDHKMRADKVREIAAKLGRHVAILGDLQGPKIRVSTFKEGKVFLNIGDKFLLDANLGKGEGDKEKVGIDYKGLPADVVPGDILLLDDGRVQLKVLEVQGMKVFTEVTVGGPLSNNKGINKLGGGLSAEALTEKDKADIKTAALIGVDYLAVSFPRCGEDLNYARRLARDAGCDAKIVAKVERAEAVCSQDAMDDIILASDVVMVARGDLGVEIGDPELVGIQKALIRRARQLNRAVITATQMMESMITNPMPTRAEVMDVANAVLDGTDAVMLSAETAAGQYPSETVAAMARVCLGAEKIPSINVSKHRLDVQFDNVEEAIAMSAMYAANHLKGVTAIITMTESGRTALMTSRISSGLPIFAMSRHERTLNLTALYRGVTPVHFDSANDGVAAASEAVNLLRDKGYLMSGDLVIVTQGDVMSTVGSTNTTRILTVE", "soluble on expression in E. coli": "soluble"},
      {"sequence": "MSRRSNRTINLPAPYLKRIWLDPSQVHDREAYPFCLPIFPDDFELSFDAAITIIVGENGTGKSTILEGIAALAGYDDAGGGKGYMPVDHSDAREKMGGQLSKALRASWLPKITNGWFFRAESFFSVARYLDKAARDAGQVGPDFLSHSHGEGFLRFFEERCQRQGIFIFDEPESALSPARQIEFLKLLRRMDDSRICQVIMATHSPMLMAYPNAKLLRLGKYGLEPVTVEETDHYRLMREFCDDPRGFVEATLAELEHHHHHH", "soluble on expression in E. coli": "soluble"},
      {"sequence": "MSRTEGSHEAEQDLTMIVGTYTSGDSKGLYSFRFNEENGTATALSEAEVENPSYLVPSADGKFIYAVSEFSNEQAAANAFAFNKEEGTFRLLNTQKTGGEDPCYIITNGSNVVTANYSGGSISVFPIDKDGSLLPASEVVKFKGSGADKERQEKPHLHCVRITPDGKYLFADDLGTDQIHKFIVNPNAKADNEDVFLKEGSPASYKVEAGSGPRHLTFAPNGSYAYLINELSGTVIAFEYNDGELKEIQTIAADTVGAKGSGDIHISPDGKFLYASNRLKADGLAIFSIHPENGMLTKVGYQLTGIHPRNFIITPNGKYLLVACRDSNVIQVYERDTDTGLLTDIRKDIKVDKPVCIKFVPLEHHHHHH", "soluble on expression in E. coli": "soluble"},
      {"sequence": "MSSAHNAYNAGIMQKTGKAFADEFFAEENQVVHESNAVVLVLMKSDEIDAIIEDIVLKGGKAKNPSIVVEDKAGFWWIKADGAIEIDAAEAGELLGKPFSVYDLLINVSSTVGRAYTLGTKFTITSELMGLDRALTDI", "soluble on expression in E. coli": "soluble"},
      {"sequence": "MSSETLEFSGCNFFRIRLAYSILSGRPIRIINIRKNDDRPGIRDFESKLIGLLEKVTNGTKVEISRTGTQVIFRPGMITGGVVNLDCGTERCISYFLEPLLLLSPFCKVPMVIKLKGVTNAPGEISVDGMKASWLKVYNKFVLNDEKLDIKIQARGLKPEGGGVVVFTAPIVKTLRPVKRQQVGKVCKIRGQAYVTKVTPSLAYRMIDAAKKAMHGYISDVYITVDQRKGDAGGASPGYGLFLTAETTEGVIYQAEAISRPKGESGVPILPEDIGIEAGHALLQQIYMGGALDSSAQILASTFMTLCPKDVSHFLYGPLPMYSVHALRHLKQFFEIEFKMEDFKKTLKEEEADLKTGSADKAMVTAVGVGYSNLNKTIL", "soluble on expression in E. coli": "not soluble"},
      {"sequence": "MSSGSTSTTPRAWLSGSVVTGKCCLLVIRKGQRPGVPFPAPCASGVAVTGRPPCATGGRGRTRPPTGVGEDTKDSCGKGIADETPRRHHGGPATRKAGRATGRSERGHSRGTRPAELMPIPRSPVVVALGAFEISNES", "soluble on expression in E. coli": "not soluble"},
      {"sequence": "MSSHHHHHHSSGLVPRGSHMASMSDSEVNQEAKPEVKPEVKPETHINLKVSDGSSEIFFKIKKTTPLRRLMEAFAKRQGKEMDSLRFLYDGIRIQADQTPEDLDMEDNDIIEAHREQIGGSLMIIENSHVKKDDIWPSGGQMTVKDLTAKYTEGGNAILENISFSISPGQRVGLLGRTGSGKSTLLSAFLRLLNTEGEIQIDGVSWDSITLQQWRKAFGVIPQKVFIFSGTFRKNLDPYEQWSDQEIWKVADEVGLRSVIEQFPGKLDFVLVDGGCVLSHGHKQLMCLARSVLSKAKILLLDQPSAHLDPVTYQIIRRTLKQAFADCTVILCEHRIEAMLECQQFLVIEENKVRQYDSIQKLLNERSLFRQAISPSDRVKLFPHRNSSK", "soluble on expression in E. coli": "soluble"},
      {"sequence": "MSSMSESDSYQSSQLTSEPDLVALDAKIMAVMDGTEELEREIGKMMALQQAISDYKKSHQHRTQRTKEKLTDMSKDLTITGKNIVKSCEERLKQISDVTEPYINSGISSVEDHTSSVVERCIQMLGAISGLGGAMKKTEGLSSKVLEHHRKLAIMEHKQADAISRYEKAVGVQKLVREHPAGDPLHELANLLGIFLALQQSPNTSEYYKKVFDGFGGRVTALFAEIDRPKTAKSLATRSGMSTLSSMSNGEINLESIKDNTEIPVDTCQ", "soluble on expression in E. coli": "not soluble"}
    ]}
  ]
}
